Source: patent US20170152290A1 (CENTRO DE INGENIERIA GEN TICA Y BIOTECHNOLOGIA, published 2017)
Positions count from the first letter of the chain named.

B1: DIIIE1PRS alanine mutant, variant E375 (other)
chain: MDKLTLKGMSYVMCTGSFKLEKEVAETQHGTVLVQVKYEGTDAPCKIPFSTQDEKGVTQNGRLITANPIVTDKEKPVNIETEPPFGASYIVVGAGEKALKLSWFKKGSSIGVDHHHHHH
notes: also called Glu375 to Ala
B2: DIIIE1PRS alanine mutant, variant K385 (other)
chain: B1 chain with A87E, K97A
notes: also called Lys385 to Ala
B3: DIIIE1PRS alanine mutant, variant K363 (other)
chain: B1 chain with K75A, A87E
notes: also called Lys363 to Ala
B4: DIIIE1PRS alanine mutant, variant T346 (other)
chain: B1 chain with T58A, A87E
B5: DIIIE1PRS alanine mutant, variant R350 (other)
chain: B1 chain with R62A, A87E
notes: also called Arg350 to Ala
B6: DIIIE1PRS alanine mutant, variant N366 (other)
chain: B1 chain with N78A, A87E
notes: also called Asn366 to Ala
B7: DIIIE1PRS alanine mutant, variant V365 (other)
chain: B1 chain with V77A, A87E
notes: also called Val365 to Ala
B8: DIIIE1PRS alanine mutant, variant E342 (other)
chain: B1 chain with E54A, A87E
notes: also called Glu342 to Ala
B9: DIIIE1PRS alanine mutant, variant G374 (other)
chain: B1 chain with G86A, A87E
notes: also called Gly374 to Ala
B10: DIIIE1PRS alanine mutant, variant E362 (other)
chain: B1 chain with E74A, A87E
B11: DIIIE1PRS alanine mutant, variant P364 (other)
chain: B1 chain with P76A, A87E
B12: DIIIE1PRS alanine mutant, variant K361 (other)
chain: B1 chain with K73A, A87E
notes: also called Lys361 to Ala
B13: DIIIE1PRS alanine mutant, variant P372 (other)
chain: B1 chain with P84A, A87E
notes: also called Pro372 to Ala
B14: Receptor-Associated Protein (RAP) (ligand, UniProt P30533 35-357, looked up)
chain: YSREKNQPKPSPKRESGEEFRMEKLNQLWEKAQRLHLPPVRLAELHADLKIQERDELAWKKLKLDGLDEDGEKEARLIRNLNVILAKYGLDGKKDARQVTSNSLSGTQEDGLDDPRLEKLWHKAKTSGKFSGEELDKLWREFLHHKEKVHEYNVLLETLSRTEEIHENVISPSDLSDIKGSVLHSRHTELKEKLRSINQGLDRLRRVSHQGYSTEAEFEEPRVIDLWDLAQSANLTDKELEAFREELKHFEAKIEKHNHYQKQLEIAHEKLRHAESVGDGERVSRSREKHALLEGRTKELGYTVKKHLQDLSGRISRARHNEL

Key:
[1] = molecular target: T1, activated human alfa-2-macroglobulin (α2M_MeNH2) (human, UniProt P01023 24-1474); assay: competition ELISA, α2M* coated, DIIIE1PRSbiot as labelled ligand
T1 construct: mature
T1 sequence (looked up): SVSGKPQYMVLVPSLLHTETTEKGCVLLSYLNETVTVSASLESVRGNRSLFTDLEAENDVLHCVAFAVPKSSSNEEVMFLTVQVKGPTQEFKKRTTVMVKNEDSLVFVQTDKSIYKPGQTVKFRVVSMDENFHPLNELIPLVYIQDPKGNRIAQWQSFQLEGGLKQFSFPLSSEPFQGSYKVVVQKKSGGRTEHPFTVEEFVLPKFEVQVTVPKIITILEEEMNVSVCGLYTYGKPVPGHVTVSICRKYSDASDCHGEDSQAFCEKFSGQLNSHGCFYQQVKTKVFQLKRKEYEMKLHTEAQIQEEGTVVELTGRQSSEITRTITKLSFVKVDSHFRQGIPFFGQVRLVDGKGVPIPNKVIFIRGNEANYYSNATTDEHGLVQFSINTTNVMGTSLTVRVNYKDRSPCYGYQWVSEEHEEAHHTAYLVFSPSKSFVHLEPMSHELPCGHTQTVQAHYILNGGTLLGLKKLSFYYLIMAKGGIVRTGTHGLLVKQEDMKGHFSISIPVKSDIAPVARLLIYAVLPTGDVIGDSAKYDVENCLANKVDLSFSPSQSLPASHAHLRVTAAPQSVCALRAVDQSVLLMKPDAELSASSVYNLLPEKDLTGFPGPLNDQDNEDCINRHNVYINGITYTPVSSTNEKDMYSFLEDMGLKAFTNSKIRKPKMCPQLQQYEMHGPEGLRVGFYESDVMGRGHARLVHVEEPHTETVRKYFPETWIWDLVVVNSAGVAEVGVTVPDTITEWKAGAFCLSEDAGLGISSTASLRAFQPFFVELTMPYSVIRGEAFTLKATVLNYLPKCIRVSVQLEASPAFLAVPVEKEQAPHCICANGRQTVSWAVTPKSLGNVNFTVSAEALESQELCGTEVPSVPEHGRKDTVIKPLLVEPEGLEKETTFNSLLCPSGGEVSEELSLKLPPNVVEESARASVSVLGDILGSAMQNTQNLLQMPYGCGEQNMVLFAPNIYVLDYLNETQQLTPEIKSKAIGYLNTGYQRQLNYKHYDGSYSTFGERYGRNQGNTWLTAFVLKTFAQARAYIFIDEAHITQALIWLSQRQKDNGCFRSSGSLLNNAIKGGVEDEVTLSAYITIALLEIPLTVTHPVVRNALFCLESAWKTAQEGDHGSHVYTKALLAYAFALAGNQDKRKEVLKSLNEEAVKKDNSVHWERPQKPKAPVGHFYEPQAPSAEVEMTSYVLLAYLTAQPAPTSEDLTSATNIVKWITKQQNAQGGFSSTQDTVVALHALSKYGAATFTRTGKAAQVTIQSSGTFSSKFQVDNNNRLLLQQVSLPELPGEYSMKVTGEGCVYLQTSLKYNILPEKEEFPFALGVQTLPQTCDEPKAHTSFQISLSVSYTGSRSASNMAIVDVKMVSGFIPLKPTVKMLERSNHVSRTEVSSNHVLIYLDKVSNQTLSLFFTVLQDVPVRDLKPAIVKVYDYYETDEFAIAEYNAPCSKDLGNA

[2] = molecular target: recombinant Human Serum Albumin (rHSA) (human, UniProt P02768 25-609); assay: SPR (Biacore X), CM5 chip, sLRP1-CIV immobilised on Fc1 and rHSA on Fc2, analyte at 100 nM

Row | Binder | fold increase of IC50 against wild-type DIIIE1PRS [1] [fold] | fold reduction of affinity against wild-type DIIIE1PRS [1] [fold] | binding result [2]
1 | B1 | ≥ 2 |  | 
2 | B2 | > 10 | > 22 | 
3 | B3 | ≥ 2 |  | 
4 | B4 | ≥ 2 |  | 
5 | B5 | ≥ 2 |  | 
6 | B6 | ≥ 2 |  | 
7 | B7 | > 10 |  | 
8 | B8 | ≥ 2 |  | 
9 | B9 | ≥ 2 |  | 
10 | B10 | > 10 |  | 
11 | B11 | > 10 |  | 
12 | B12 | > 10 |  | 
13 | B13 | ≥ 2 |  | 
14 | B14 |  |  | no binding (tested: 100 nM)
